Assay results: patent US20090099029A1, “Methods and substrates for conducting assays” (Invitrogen Corporation, priority 2005, published 2009)

B1: TYRO3 (protein)
chain: LRKRRKETRFGQAFDSVMARGEPAVHFRAARSFNRERPERIEATLDSLGISDELKEKLEDVLIPEQQFTLGRMLGKGEFGSVREAQLKQEDGSFVKVAVKMLKADIIASSDIEEFLREAACMKEFDHPHVAKLVGVSLRSRAKGRLPIPMVILPFMKHGDLHAFLLASRIGENPFNLPLQTLIRFMVDIACGMEYLSSRNFIHRDLAARNCMLAEDMTVCVADFGLSRKIYSGDYYRQGCASKLPVKWLALESLADNLYTVQSDVWAFGVTMWEIMTRGQTPYAGIENAEIYNYLIGGNRLKQPPECMEDVYDLMYQCWSADPKQRPSFTCLRMELENILGQLSVLSASQDPLYINIERAEEPTAGGSLELPGRDQPYSGAGDGSGMGAVGGTPSDCRYILTPGGLAEQPGQAEHQPESPLNETQRLLLLQQGLLPHSSC
modifications: left off: a dimerising Fc or GST
B2: ABL2(ARG) (protein)
chain: MGQQVGRVGEAPGLQQPQPRGIRGSSAARPSGRRRDPAGRTTETGFNIFTQHDHFASCVEDGFEGDKTGGSSPEALHRPYGCDVEPQALNEAIRWSSKENLLGATESDPNLFVALYDFVASGDNTLSITKGEKLRVLGYNQNGEWSEVRSKNGQGWVPSNYITPVNSLEKHSWYHGPVSRSAAEYLLSSLINGSFLVRESESSPGQLSISLRYEGRVYHYRINTTADGKVYVTAESRFSTLAELVHHHSTVADGLVTTLHYPAPKCNKPTVYGVSPIHDKWEMERTDITMKHKLGGGQYGEVYVGVWKKYSLTVAVKTLKEDTMEVEEFLKEAAVMKEIKHPNLVQLLGVCTLEPPFYIVTEYMPYGNLLDYLRECNREEVTAVVLLYMATQISSAMEYLEKKNFIHRDLAARNCLVGENHVVKVADFGLSRLMTGDTYTAHAGAKFPIKWTAPESLAYNTFSIKSDVWAFGVLLWEIATYGMSPYPGIDLSQVYDLLEKGYRMEQPEGCPPKVYELMRACWKWSPADRPSFAETHQAFETMFHDSSISEEVAEELGRAASSSSVVPYLPRLPILPSKTRTLKKQVENKENIEGAQDATENSASSLAPGFIRGAQASSGSPALPRKQRDKSPSSLLEDAKETCFTRDRKGGFFSSFMKKRNAPTPPKRSSSFREMENQPHKKYELTGNFSSVASLQHADGFSFTPAQQEANLVPPKCYGGSFAQRNLCNDDGGGGGGSGTAGGGWSGITGFFTPRLIKKTLGLRAGKPTASDDTSKPFPRSNSTSSMSSGLPEQDRMAMTLPRNCQRSKLQLERTVSTSSQPEENVDRANDMLPKKSEESAAPSRERPKAKLLPRGATALPLRTPSGDLAITEKDPPGVGVAGVAAAPKGKEKNGGARLGMAGVPEDGEQPGWPSPAKAAPVLPTTHNHKVPVLISPTLKHTPADVQLIGTDSQGNKFKLLSEHQVTSSGDKDRPRRVKPKCAPPPPPVMRLLQHPSICSDPTEEPTALTAGQSTSETQEGGKKAALGAVPISGKAGRPVMPPPQVPLPTSSISPAKMANGTAGTKVALRKTKQAAEKISADKISKEALLECADLLSSALTEPVPNSQLVDTGHQLLDYCSGYVDCIPQTRNKFAFREAVSKLELSLQELQVSSAAAGVPGTNPVLNNLLSCVQEISDVVQR
modifications: left off: small tags and cut ends
B3: BTK (protein)
chain: MAAVILESIFLKRSQQKKKTSPLNFKKRLFLLTVHKLSYYEYDFERGRRGSKKGSIDVEKITCVETVVPEKNPPPERQIPRRGEESSEMEQISIIERFPYPFQVVYDEGPLYVFSPTEELRKRWIHQLKNVIRYNSDLVQKYHPCFWIDGQYLCCSQTAKNAMGCQILENRNGSLKPGSSHRKTKKPLPPTPEEDQILKKPLPPEPAAAPVSTSELKKVVALYDYMPMNANDLQLRKGDEYFILEESNLPWWRARDKNGQEGYIPSNYVTEAEDSIEMYEWYSKHMTRSQAEQLLKQEGKEGGFIVRDSSKAGKYTVSVFAKSTGDPQGVIRHYVVCSTPQSQYYLAEKHLFSTIPELINYHQHNSAGLISRLKYPVSQQNKNAPSTAGLGYGSWEIDPKDLTFLKELGTGQFGVVKYGKWRGQYDVAIKMIKEGSMSEDEFIEEAKVMMNLSHEKLVQLYGVCTKQRPIFIITEYMANGCLLNYLREMRHRFQTQQLLEMCKDVCEAMEYLESKQFLHRDLAARNCLVNDQGVVKVSDFGLSRYVLDDEYTSSVGSKFPVRWSPPEVLMYSKFSSKSDIWAFGVLMWEIYSLGKMPYERFTNSETAEHIAQGLRLYRPHLASEKVYTIMYSCWHEKADERPTFKILLSNILDVMDEES
modifications: left off: small tags and cut ends
B4: BMX (protein)
chain: MDTKSILEELLLKRSQQKKKMSPNNYKERLFVLTKTNLSYYEYDKMKRGSRKGSIEIKKIRCVEKVNLEEQTPVERQYPFQIVYKDGLLYVYASNEESRSQWLKALQKEIRGNPHLLVKYHSGFFVDGKFLCCQQSCKAAPGCTLWEAYANLHTAVNEEKHRVPTFPDRVLKIPRAVPVLKMDAPSSSTTLAQYDNESKKNYGSQPPSSSTSLAQYDSNSKKIYGSQPNFNMQYIPREDFPDWWQVRKLKSSSSSEDVASSNQKERNVNHTTSKISWEFPESSSSEEEENLDDYDWFAGNISRSQSEQLLRQKGKEGAFMVRNSSQVGMYTVSLFSKAVNDKKGTVKHYHVHTNAENKLYLAENYCFDSIPKLIHYHQHNSAGMITRLRHPVSTKANKVPDSVSLGNGIWELKREEITLLKELGSGQFGVVQLGKWKGQYDVAVKMIKEGSMSEDEFFQEAQTMMKLSHPKLVKFYGVCSKEYPIYIVTEYISNGCLLNYLRSHGKGLEPSQLLEMCYDVCEGMAFLESHQFIHRDLAARNCLVDRDLCVKVSDFGMTRYVLDDQYVSSVGTKFPVKWSAPEVFHYFKYSSKSDVWAFGILMWEVFSLGKQPYDLYDNSQVVLKVSQGHRLYRPHLASDTIYQIMYSCWHELPEKRPTFQQLLSSIEPLREKDKH
modifications: left off: small tags and cut ends
B5: RET (protein)
chain: HCYHKFAHKPPISSAEMTFRRPAQAFPVSYSSSGARRPSLDSMENQVSVDAFKILEDPKWEFPRKNLVLGKTLGEGEFGKVVKATAFHLKGRAGYTTVAVKMLKENASPSELRDLLSEFNVLKQVNHPHVIKLYGACSQDGPLLLIVEYAKYGSLRGFLRESRKVGPGYLGSGGSRNSSSLDHPDERALTMGDLISFAWQISQGMQYLAEMKLVHRDLAARNILVAEGRKMKISDFGLSRDVYEEDSYVKRSQGRIPVKWMAIESLFDHIYTTQSDVWSFGVLLWEIVTLGGNPYPGIPPERLFNLLKTGHRMERPDNCSEEMYRLMLQCWKQEPDKRPVFADISKDLEKMMVKRRDYLDLAASTPSDSLIYDDGLSEEETPLVDCNNAPLPRALPSTWIENKLYGMSDPNWPGESPVPLTRADGTNTGFPRYPNDSVYANWMLSPSAAKLMDTFDS
modifications: left off: a dimerising Fc or GST
B6: ROS1 (protein)
chain: HRRLKNQKSAKEGVTVLINEDKELAELRGLAAGVGLANACYAIHTLPTQEEIENLPAFPREKLTLRLLLGSGAFGEVYEGTAVDILGVGSGEIKVAVKTLKKGSTDQEKIEFLKEAHLMSKFNHPNILKQLGVCLLNEPQYIILELMEGGDLLTYLRKARMATFYGPLLTLVDLVDLCVDISKGCVYLERMHFIHRDLAARNCLVSVKDYTSPRIVKIGDFGLARDIYKNDYYRKRGEGLLPVRWMAPESLMDGIFTTQSDVWSFGILIWEILTLGHQPYPAHSNLDVLNYVQTGGRLEPPRNCPDDLWNLMTQCWAQEPDQRPTFHRIQDQLQLFRNFFLNSIYKSRDEANNSGVINESFEGEDGDVICLNSDDIMPVALMETKNREGLNYMVLATECGQGEEKSEGPLGSQESESCGLRKEEKEPHADKDFCQEKQVAYCPSGKPEGLNYACLTHSGYGDGSD
modifications: left off: a dimerising Fc or GST

Tested on: kinases of Table 6 on Myelin Basic Protein (MBP)
Assay: Kinase assay using MBP substrate, ProQ Diamond stain (Table 6)
Format: biochemical
Details: kinase printed on MBP-coated slide; 20 uM ATP, 30° C.; ProQ Diamond Microarray Stain; graded Strong/Weak/Negative
Procedure, shortened: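 Reactions ran at 30° C. with 20 uM ATP, 4 mM MgCl2 and 5% DMSO in HEPES pH 7.5, inhibitor added or omitted. Kinases had been arrayed onto slide-bound dephosphorylated bovine MBP; phospho-signal read after ProQ Diamond staining.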

Molecule | MBP Kinase Activity
B1 | Strong
B2 | Weak
B3 | Strong
B4 | Strong
B5 | Strong
B6 | Strong
